{
  "source": "paper PMC7727368",
  "target": "Fasciola hepatica profilin (FhProfilin), recombinant (Fasciola hepatica)",
  "experiment": "SEC; Superdex S75 16/60 in TBS (10 mM Tris-HCl, 300 mM NaCl, pH 8.0), 1 ml/min; elution volume compared with proteins of known molecular weight",
  "data": [
    {"substance": "Fasciola hepatica profilin (FhProfilin), recombinant (natural protein)", "values": [
      {"measurement": "stoichiometry N", "value": 2}
    ]}
  ]
}
